The chains are these.
B1: Maltose Binding Protein (MBP)-fused Nop58p_447 (domain or fragment, S. cerevisiae, UniProt Q12499 1-447, looked up)
chain: MAYVLTETSAGYALLKASDKKIYKSSSLIQDLDSSDKVLKEFKIAAFSKFNSAANALEEANSIIEGKVSSQLEKLLEEIKKDKKSTLIVSETKLANAINKLGLNFNVVSDAVTLDIYRAIKEYLPELLPGMSDNDLSKMSLGLAHSIGRHKLKFSADKVDVMIIQAIALLDDLDKELNTYAMRCKEWYGWHFPELAKIVTDSVAYARIILTMGIRSKASETDLSEILPEEIEERVKTAAEVSMGTEITQTDLDNINALAEQIVEFAAYREQLSNYLSARMKAIAPNLTQLVGELVGARLIAHSGSLISLAKSPASTIQILGAEKALFRALKTKHDTPKYGLLYHASLVGQATGKNKGKIARVLAAKAAVSLRYDALAEDRDDSGDIGLESRAKVENRLSQLEGRDLRTTPKVVREAKKVEMTEARAYNADADTAKAASDSESDSDDE
notes: In the cross-linking and cryo-EM sections the text often calls this MBP fusion simply Nop58p_447; also called MBP-Nop58p_447; MBP-Nop58_447; source: E. coli, purified (amylose, monoQ, gel filtration); not shown: MBP, N-terminal, kept

Experiment [1] deals with T1, Rvb2p (yeast, UniProt Q12464 1-471).
T1 construct: Rvb2p, yeast AAA+ ATPase; Subunit as it stood in the MBP-Nop58p_447-R2TP complex; also called Ruv2p; source: purified as Rvb1/2p heterocomplex, within reconstituted R2TP
The experiment is described as follows: cross-linking; co-purified MBP-Nop58p_447-R2TP complex, BS3-d0/BS3-d4 for 30 min, SDS-PAGE, trypsin, mass spectrometry. Conditions: both partners purified.

For experiment [2], the target named is T2, Rvb1p (yeast, UniProt Q03940 1-463).
T2 construct: Rvb1p, yeast AAA+ ATPase; Subunit as it stood in the MBP-Nop58p_447-R2TP complex; also called Ruv1p; source: purified as Rvb1/2p heterocomplex, within reconstituted R2TP
Described as above. To be noted: both partners purified.

Experiment [3] has as its target B1. The experiment can be described thus: ITC; MBP-Nop58p in the sample cell (MBP-Nop58p_447 at 7.8 μM), Pih1p-Tah1p in the injector at 99.6 μM; 25 °C; 25 mM HEPES, 150 mM NaCl, 5% glycerol, 5 mM beta-ME, pH 7.5; One Site model. Conditions: both partners purified. (In general: Isothermal titration calorimetry measures the heat released or taken up as one component is titrated into another.)

The target of experiment [4] is T3, Maltose Binding Protein (MBP)-fused Nop58p_447 (S. cerevisiae, UniProt Q12499 1-447).
T3 chain: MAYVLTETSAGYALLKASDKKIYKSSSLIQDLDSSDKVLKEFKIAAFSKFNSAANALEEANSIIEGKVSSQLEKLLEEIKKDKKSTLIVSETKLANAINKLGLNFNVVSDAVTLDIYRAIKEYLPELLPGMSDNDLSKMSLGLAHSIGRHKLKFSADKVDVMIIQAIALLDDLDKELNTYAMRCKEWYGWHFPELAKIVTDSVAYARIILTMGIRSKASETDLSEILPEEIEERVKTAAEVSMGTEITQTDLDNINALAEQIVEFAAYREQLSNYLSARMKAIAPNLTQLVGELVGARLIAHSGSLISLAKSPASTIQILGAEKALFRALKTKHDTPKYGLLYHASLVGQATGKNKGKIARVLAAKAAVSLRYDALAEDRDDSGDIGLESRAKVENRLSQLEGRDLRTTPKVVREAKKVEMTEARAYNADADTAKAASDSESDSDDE
The experiment is described as follows: ITC.

The target of experiment [5] is B1. The experiment can be described thus: cross-linking; co-purified MBP-Nop58p_447-R2TP complex, BS3-d0/BS3-d4 for 30 min, SDS-PAGE, trypsin, mass spectrometry. To be noted: both partners purified.

T2 sequence (Q03940 whole entry): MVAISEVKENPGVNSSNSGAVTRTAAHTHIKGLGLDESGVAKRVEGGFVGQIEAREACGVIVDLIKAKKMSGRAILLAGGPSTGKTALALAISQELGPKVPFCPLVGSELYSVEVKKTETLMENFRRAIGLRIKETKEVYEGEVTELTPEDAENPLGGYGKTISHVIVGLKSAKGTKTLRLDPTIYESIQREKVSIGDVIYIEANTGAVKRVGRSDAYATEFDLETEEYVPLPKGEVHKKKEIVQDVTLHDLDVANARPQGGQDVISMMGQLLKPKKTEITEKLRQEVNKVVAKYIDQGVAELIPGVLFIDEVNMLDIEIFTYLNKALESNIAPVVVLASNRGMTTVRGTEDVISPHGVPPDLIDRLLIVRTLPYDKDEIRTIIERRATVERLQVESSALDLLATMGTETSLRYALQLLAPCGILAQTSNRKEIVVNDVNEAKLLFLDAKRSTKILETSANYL
T1 sequence (Q12464 whole entry): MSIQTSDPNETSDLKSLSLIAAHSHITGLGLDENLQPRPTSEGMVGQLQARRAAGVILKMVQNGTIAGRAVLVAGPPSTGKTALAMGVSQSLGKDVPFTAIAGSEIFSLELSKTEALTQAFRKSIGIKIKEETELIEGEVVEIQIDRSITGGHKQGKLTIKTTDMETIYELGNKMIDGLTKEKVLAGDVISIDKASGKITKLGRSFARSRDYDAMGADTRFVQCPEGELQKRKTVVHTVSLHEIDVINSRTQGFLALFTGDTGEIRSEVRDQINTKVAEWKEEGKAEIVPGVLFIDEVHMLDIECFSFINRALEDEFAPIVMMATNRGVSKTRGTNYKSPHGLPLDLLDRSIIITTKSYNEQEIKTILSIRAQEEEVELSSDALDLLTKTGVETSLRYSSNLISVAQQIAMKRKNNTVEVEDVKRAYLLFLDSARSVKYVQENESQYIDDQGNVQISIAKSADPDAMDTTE

B1: the binding result in experiment [1] and in experiment [2] was “binds” each time.

B2: Pih1p-Tah1p heterodimer (complex, yeast)
chain 1: MADFLLRPIKQRHRNEDKYVSVDAADGSVSKIEPIADFVIKTKLLSANGPEKLQDGRKVFINVCHSPLVPKPEVDFNARIVFPLIIQNEWEIPIITSCYRMDHDKKGQECYVWDCCINSDCSRWICDDIQLREILVEWCLESCEIRDSVVLCRDRIAFPKMKKKGAELPALEVLNDELHQDYKAKMHKIIEEEAGDPMSILRGRNDDGDDNNDPDDGTLPPLFPIENKISGAKIEEIDKNEIAHRNLKQAPAPAPAPHEQQEDVPEYEVKMKRFKGAAYKLRILIENKAPNSKPDRFSPSYNFAENILYINGKLSIPLPRDIVVNAADIKIFHIRKERTLYIYI
chain 2: MSQFEKQKEQGNSLFKQGLYREAVHCYDQLITAQPQNPVGYSNKAMALIKLGEYTQAIQMCQQGLRYTSTAEHVAIRSKLQYRLELAQGAVGSVQIPVVEVDELPEGYDRS
notes: Tah1p, yeast, YCR060W; also called His-Pih1p-Tah1p; source: purified
A word on the stoichiometry N: it is a count of units in the complex or per binding partner. Usually Kd stands for a measure of binding affinity in units of concentration. The low end stands for higher affinity, the high end for lower affinity. Turning to B2, in experiment [3], the “stoichiometry N” value amounted to 1. The molecule also had an equilibrium dissociation constant (Kd) in experiment [4] of 440 nM.

B3: Pih1p (natural protein, yeast, UniProt P38768 1-344, looked up)
chain: MADFLLRPIKQRHRNEDKYVSVDAADGSVSKIEPIADFVIKTKLLSANGPEKLQDGRKVFINVCHSPLVPKPEVDFNARIVFPLIIQNEWEIPIITSCYRMDHDKKGQECYVWDCCINSDCSRWICDDIQLREILVEWCLESCEIRDSVVLCRDRIAFPKMKKKGAELPALEVLNDELHQDYKAKMHKIIEEEAGDPMSILRGRNDDGDDNNDPDDGTLPPLFPIENKISGAKIEEIDKNEIAHRNLKQAPAPAPAPHEQQEDVPEYEVKMKRFKGAAYKLRILIENKAPNSKPDRFSPSYNFAENILYINGKLSIPLPRDIVVNAADIKIFHIRKERTLYIYI
notes: Subunit as it stood in the MBP-Nop58p_447-R2TP complex; source: purified as His-Pih1p-Tah1p, within reconstituted R2TP
Take B3: the binding result in experiment [5] and in experiment [2] was “binds” in each case.

These data come from article PMC6934851, “Yeast R2TP Interacts with Extended Termini of Client Protein Nop58p” (Scientific Reports, 2019).
